This experiment has as its target T1, ATF4-275 (isolated transactivation domain of activating transcription factor 4) (human, UniProt P18848 1-275).
T1 construct: 15N-labelled (expressed in minimal medium) for the NMR titration; also called isolated TAD; ATF4 TAD; not shown: GST, N-terminal, cleaved
T1 sequence (looked up): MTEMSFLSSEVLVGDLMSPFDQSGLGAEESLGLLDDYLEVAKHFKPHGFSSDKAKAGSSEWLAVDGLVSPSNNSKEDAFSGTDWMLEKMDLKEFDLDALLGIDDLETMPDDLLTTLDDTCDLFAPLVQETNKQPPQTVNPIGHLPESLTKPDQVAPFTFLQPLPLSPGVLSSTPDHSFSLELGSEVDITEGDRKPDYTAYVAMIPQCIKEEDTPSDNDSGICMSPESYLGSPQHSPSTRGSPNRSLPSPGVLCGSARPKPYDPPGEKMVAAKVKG
In words: NMR titration; 15N-labeled ATF4-275 titrated with increasing concentrations of unlabeled ATF4-bZip; 2D 1H-15N TROSY-HSQC, amide crosspeak intensity ratios; NMR samples in 20 mM MES pH 6.5, 50 mM NaCl. Particulars: both partners purified.

Results on one molecule are retold here after PMC8881488, “Intricate coupling between the transactivation and basic-leucine zipper domains governs phosphorylation of transcription factor ATF4 by casein kinase 2” (The Journal of Biological Chemistry, 2022).

B1: ATF4-bZip (isolated basic-leucine zipper domain of activating transcription factor 4) (domain or fragment, human, UniProt P18848 276-351, looked up)
chain: EKLDKKLKKMEQNKTAATRYRQKKRAEQEALTGECKELEKKNEALKERADSLAKEIQYLKDLIEEVRKARGKKRVP
notes: The limits 276-351 are those printed for the bZip domain; also called bZip domain; isolated bZip domain; source: E. coli BL21(DE3), purified (Glutathione-Sepharose, TEV cleavage, Superdex 200 gel filtration); not shown: GST, N-terminal, cleaved
Regarding B1, the binding result is recorded as “binds”.
